These are literature values, as cited in PMC6120632.

The Kd is the concentration at which binding is half-saturated.

The target of this series is Basigin (Homo sapiens) (UniProt P35613).
Chain of UniProt P35613 (P35613 22-325): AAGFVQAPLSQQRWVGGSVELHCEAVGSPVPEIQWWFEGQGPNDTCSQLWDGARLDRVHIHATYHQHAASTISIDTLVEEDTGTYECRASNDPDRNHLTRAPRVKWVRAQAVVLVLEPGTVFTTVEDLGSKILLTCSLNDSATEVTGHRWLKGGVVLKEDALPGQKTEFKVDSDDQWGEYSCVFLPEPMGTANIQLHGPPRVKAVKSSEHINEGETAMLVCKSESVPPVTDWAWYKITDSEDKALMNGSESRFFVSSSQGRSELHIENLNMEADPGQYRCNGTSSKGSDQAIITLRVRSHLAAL

RH5 (from UniProt Q8IFM5): the Kd is 1 µM.
